One substance from publication PMC3610674 can be followed below.

Like-named read-outs stand apart in the source and are kept apart here.

The target of assay [1] is proNS5-HA (proteolytically-processed HA-tagged DENV2 NS5) (dengue virus serotype 2 (DENV2)). Put plainly: co-IP.
Assay [2] shares this target. Briefly: co-IP. The source holds these as a separate data set.

On to “UBR4 (human, endogenous) (from UniProt Q5T4S7 1-5183) (natural protein)”, for which the values for the fold UBR4 precipitated against NS5-HA (densitometry) in assay [1] and in assay [2] were 2 fold and 7 fold, respectively.
